Data reported in the nanobody polyreactivity screen of Harvey et al. (2022).

Test: yeast display, Sf9 membrane polyspecificity reagent, FACS + sequencing; frameworks hold sequencing errors
In short: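 After 36–48 hours of galactose induction, yeast (Saccharomyces cerevisiae BJ5465) displaying a synthetic nanobody library were stained at 4 °C for 1 hour with 10% biotinylated, detergent-solubilized Sf9 membrane reagent. Streptavidin microbeads enriched the stained cells before FACS sorting into low and high (top ~1%) gates on anti-HA and streptavidin fluorescence. Each clone's polyreactivity label reflects its gate of origin.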
For “QVQLVESGGGLVQAGGSLRLSCAASGRIFWRYAMGWYRQAPGKERELVAAITGRTGSTNYADSVKGRFTISRDNANNTVYLQMNSLKREDTAVYYCAAAHHRWTGLFPSGYEFDYWGQGTQVTVSS”, the “polyreactivity (PSR sort gate)” value was “low polyreactivity”. In the case of “QVQLVESGGGLVQAGGSLRLSCAASGRIFWSYPMGWYRQAPGKERELVAAITWRTGRTYYADSVKGRFTISRDNAKNTVYLQMNSLKPEDTAVYYCAAEGYLWGQSYNGLNYDSWGQGTQVTVSS”, the “polyreactivity (PSR sort gate)” value is reported as “low polyreactivity”. With “QVQLVESGGGLVQAGGSLRLSCAASGRIFWTYAMGWYRHAPGKERELVAVISIGGTTYYADTVKGRFTISRDNAKNTVYLQMNSLKPEDTAVYYSAAPPSNATGFLSYDYWGQGTQVTVSS” the “polyreactivity (PSR sort gate)” value was “low polyreactivity”. With “QVQLVESGGGLVQAGGSLRLSCAASGRIFWVYAMGGYRQAPGKERELVAAINTSVGRTHYADSVKGRFTISRDNAKNTVYLQMNSLKPEDTAVYYCAADVKRYGWEYGYWGQGTQVTVSS” the “polyreactivity (PSR sort gate)” value was “low polyreactivity”. In the case of “QVQLVESGGGLVQAGGSLRLSCAASGRIFWVYAMGWSRQAPGKERERVAAITWRGVSTYFADSVKGRFTISRDNAKNTVYLQMNSLKPEDTAVYYCAVSLYGYSGNYGPYWYDYWGQGTQVTVSS”, the “polyreactivity (PSR sort gate)” value is reported as “low polyreactivity”. With “QVQLVESGGGLVQAGGSLRLSCAASGRIFWYNAMGWSRQAPGKERELVAAISSIDGTTYYADSLKGRFTISRDNAKNTFYLQMNSLKPEDTAVYYCAAEDPADQYDYWGQGTQVTVSS” the “polyreactivity (PSR sort gate)” value was “high polyreactivity”. For “QVQLVESGGGLVQAGGSLRLSCAASGRIFWYNAMGWSRQAPGKESELVAAISWRGSRTYYADSVKGRFTISRDNAKNTVYLQMNSLKPEDTAVYYCAADPDVYAYYGYDYWGQGTQVTVSS”, the “polyreactivity (PSR sort gate)” value was “high polyreactivity”. With “QVQLVESGGGLVQAGGSLRLSCAASGRIFWYYGMGWYRQAPGKERELVAAIRGGGSTYYADSVKGRFTISRDNAKNTVYLQMNSLKPEETAVYYCAVDWSRFYNRGGDYWGQGTQVTVSS” the “polyreactivity (PSR sort gate)” value was “high polyreactivity”. With “QVQLVESGGGLVQAGGSLRLSCAASGRIFYANAMGWYRQAPGKERELVAAISQSGGSTFYADSVKGRFTISRDNAKNTVYLQMNSLKPEDTAVYYCATEYYGPVYDLDYDYWGQGTQVTVSS” the “polyreactivity (PSR sort gate)” value was “low polyreactivity”. For “QVQLVESGGGLVQAGGSLRLSCAASGRIFYANAMGWYRQAPGKERELVAAISSGGSTYYADSVKGRFTISRDNAKNTVYLQMNSLKPEDTAVYYCAVYTHKKVRPEYDYWGQGTQVTVSS”, the “polyreactivity (PSR sort gate)” value was “low polyreactivity”. With “QVQLVESGGGLVQAGGSLRLSCAASGRIFYANAMGWYRQAPGKERELVAAISWSGGSTYYADSVKGRFTISRDNAKNTVYLQMNSLKPEDTAVYYCNALGRSYRSRRYDYWGQGTQVTVSS” the “polyreactivity (PSR sort gate)” value was “high polyreactivity”. In the case of “QVQLVESGGGLVQAGGSLRLSCAASGRIFYANAMGWYRQAPGKERELVASISARGGSTYYADSVKGRFTISRDNAKNTVYLQMNSLKPEDTAVYYCAKRDTFKPYASLYDYWGQGTQVTVSS”, the “polyreactivity (PSR sort gate)” value is reported as “high polyreactivity”. In the case of “QVQLVESGGGLVQAGGSLRLSCAASGRIFYANDMGWYRQAPGKERELVAAITNTVSTTYADSVKGRFTISRDNAKNTVYLQMNSLKPEDTAVYYCNADDPYVPKADMGYWGQGTQVTVSS”, the “polyreactivity (PSR sort gate)” value is reported as “low polyreactivity”. With “QVQLVESGGGLVQAGGSLRLSCAASGRIFYANDMGWYRQAPWKERELVAAITNTVSTTYADSVKGRFTISRDNAKNTVYLQMNSLKPEDTAVYYCNGDDPYVPKADMGYWGQGTQVTVSS” the “polyreactivity (PSR sort gate)” value was “low polyreactivity”. For “QVQLVESGGGLVQAGGSLRLSCAASGRIFYANTMGWYRQAPGKEWELVAAITSGGSTNYADSVKGRFTISRDNAKNTVYGQKNSLKPEDTAVYYCATKQRRGYWGYITAYARYYWGQGTQVTVSS”, the “polyreactivity (PSR sort gate)” value was “high polyreactivity”. With “QVQLVESGGGLVQAGGSLRLSCAASGRIFYAYAMGWYRKAPGKERELVAAITETGGNTYYADSVKGRFTISRDNAKNTVYLQMNSLKPEDTAVYYCARKGRRTHHYGLYSSSVYYWGQGTQVTVSS” the “polyreactivity (PSR sort gate)” value was “low polyreactivity”. With “QVQLVESGGGLVQAGGSLRLSCAASGRIFYAYAMGWYRPAPGNERELVAAITISASSTYYADSVKGRFTISRDNAKNTVYLQMNSLKPEDTAVSYCAAAYRRPWWYSYRYGYWGQGTQVTVSS” the “polyreactivity (PSR sort gate)” value was “high polyreactivity”. In the case of “QVQLVESGGGLVQAGGSLRLSCAASGRIFYAYAMGWYRQAPGKERELVARISYSGGNTYYADSVKGRFTISRDNAKNTVYLQMNSQKPEDTAVYYCNTDYRARFGYWGQGTQVTVSS”, the “polyreactivity (PSR sort gate)” value is reported as “high polyreactivity”. In the case of “QVQLVESGGGLVQAGGSLRLSCAASGRIFYAYAMGWYRQAPGKERELVATITGIGGSTYADSVKGRFTISRDNAKNTVNLQMNSLKPEDTAVYYCNAERGVYWGRYPYKYDYWGQGTQVTVSS”, the “polyreactivity (PSR sort gate)” value is reported as “low polyreactivity”. In the case of “QVQLVESGGGLVQAGGSLRLSCAASGRIFYAYAMGWYRQAPGKERELVATITYGGGSTYYADSVKGRFTISRDNAKNTVDLQMNSLKPEATAVYYCAADRTGSTLYTIRYYYWGQGTQVTVSS”, the “polyreactivity (PSR sort gate)” value is reported as “low polyreactivity”. In the case of “QVQLVESGGGLVQAGGSLRLSCAASGRIFYDNAMGWYSQAPGKERELVAAIRIGGSTNYADSVKGRFTISRDNAKNTVYLLMNSLKPEDTAVYYCNRSDNPDSYYPDSVWGDSWGQGTQVTVSS”, the “polyreactivity (PSR sort gate)” value is reported as “low polyreactivity”. With “QVQLVESGGGLVQAGGSLRLSCAASGRIFYDYDMGWYRQAPGKERELVAAISYGGGTTYYADSVKGRFTISRDNAKNTVYLQMTSLKPEDTAVYYCAAEYASGSYDEYDYWGQGTQVTVSS” the “polyreactivity (PSR sort gate)” value was “low polyreactivity”. For “QVQLVESGGGLVQAGGSLRLSCAASGRIFYEYAMGWYRQAPGKEREVVAAISNSGGSTSYADSVKGRFSISRDNATNTDYLQMNSLQPEDTAVSYCAAGSHSGRAYYYWGEGTQVTVSS”, the “polyreactivity (PSR sort gate)” value was “high polyreactivity”. In the case of “QVQLVESGGGLVQAGGSLRLSCAASGRIFYFNAMGWYRQAPGKERELVAAISGSGGDTYYADSVKGRFTISRDNAKNTVYLQMNSLKPEDTAVYYCAAEVYTWGQGTQVTVSS”, the “polyreactivity (PSR sort gate)” value is reported as “low polyreactivity”. For “QVQLVESGGGLVQAGGSLRLSCAASGRIFYFNAMGWYRQAPGKERELVADMSSGGRTNYADSVKGRFTISRDNEKNSVYLQMNSLKPEDSAVYYWIAEPYTSSVGYRGYDFDDWGQGTQVTVSS”, the “polyreactivity (PSR sort gate)” value was “low polyreactivity”. With “QVQLVESGGGLVQAGGSLRLSCAASGRIFYFNTMGWSRQAPGKERELVAAISKNGGSTYYADSVKGRFTISRDTAKNTVYLQMNSLKPEDTAVYYCAKTRRLSPYDYWGQGTQVTVSS” the “polyreactivity (PSR sort gate)” value was “high polyreactivity”. In the case of “QVQLVESGGGLVQAGGSLRLSCAASGRIFYFYAMGWYRQAPGKERELVAAINIGGSTNYADSVKGRFTISRDNAKNTVYLQMNSLKPEDTAVYYCNAEAYSRSDYYRYDYWGQGTQVTVSS”, the “polyreactivity (PSR sort gate)” value is reported as “low polyreactivity”. With “QVQLVESGGGLVQAGGSLRLSCAASGRIFYGNAMGWYRQAPGKERQLVAAITDGGSTNYADSVKGRFTISRDNAKNTVYLQMNSLKPEDTAVYYCAKDYRGSYYKYDYWGQGTQVTVSS” the “polyreactivity (PSR sort gate)” value was “low polyreactivity”. In the case of “QVQLVESGGGLVQAGGSLRLSCAASGRIFYGYAMGWYRQAPGKERELVAAITRSGGSTYYADSVKGRFTISRDTAKNTVYLQMNSLKPEDTAVYYCNAQWGYRTSFDYGYWGQGTQVTVSS”, the “polyreactivity (PSR sort gate)” value is reported as “low polyreactivity”. In the case of “QVQLVESGGGLVQAGGSLRLSCAASGRIFYGYAMGWYRQAPGKERELVAAITSGSRTNYADSVKGRFTISRDNAKNTVYLQMNSLKPEDTAVYYCHSRYGSYLYSLVHNTRYDYWGQGTQVTVSS”, the “polyreactivity (PSR sort gate)” value is reported as “low polyreactivity”. For “QVQLVESGGGLVQAGGSLRLSCAASGRIFYGYAMGWYRQAPGKERELVAAITVSGGDTYYADSVKGRFTISRDNAKNTVYLQMNSLKPEDTAVYYCAAKADKRLDYWGQGTQVTVSS”, the “polyreactivity (PSR sort gate)” value was “low polyreactivity”.
